Experiment [1] deals with T1, FGFR1 expressed on Rh4-FR4ko cells (UniProt P11362 22-822, limits assumed).
T1 construct: whole, on cells; also called FGFR1 on Rh4 cells
The experiment can be described thus: flow cytometry on Rh4-FR4ko cells, which express FGFR1 and FGFR2. The procedure: (§1) The cells were incubated for 1 h with nanobodies at 10 μM (A8, B1, B5, F8, mCh) followed by stimulation of FGFR4 with 50 nM FGF19 for 10 min. Control cells (C) were either not stimulated or stimulated with FGF19 in absence of the nanobodies. The cell lysates were analysed by western blot with anti phospho ERK1/2 antibody. Total Erk1/2 levels are shown as loading control.
(§2) Binding validation of selected phages, recombinant nanobodies and decorated liposomes was performed on Rh4-FR4 wt and Rh4-FR4ko cells. Specificity of selected phage clones binding to FGFR4 was determined by flow cytometry in 96-well plates (Becton Dickinson). Cell surface staining of Rh4-FR4 wt or Rh4-FR4ko cells was performed on ice in PBS supplemented with 1% FBS. 80 μL phages+20 μL PBS/1% milk were incubated on 1×10⁵ cells for 1 h on ice. […] Samples were analyzed after two washes by flow cytometry on a MACSQuant® cytometer (Miltenyi) and results were analyzed with FlowJo™ software (BD Biosciences, France). Phages displaying anti-mCherry nanobodies were used as negative control²⁴ and as positive control we used an anti-FGFR4 antibody (BT53, kindly provided by J. Khan lab, NCI, Bethesda, MD). For binding test of recombinant nanobodies, cells were detached with Accutase® (Stemcell Technologies) and washed with PBS. All following steps were performed on ice: 4×10⁵ cells were incubated with nanobody concentrations of 30 μg/ml for 1 h, washed once with PBS and incubated for an additional 30 min with anti His-tag FITC labeled antibody (LS-C57341, LSBioscience, diluted 1:10). The cells were washed once more with PBS and analyzed. Targeting liposomes were added at 0.5 mM final lipid concentration to cells in 96-well plates and incubated for 2 h at 37° C. and 5% CO₂. The cells were washed twice with PBS and detached with Accutase®.
(§3) Validation of the binding of recombinant nanobodies to cell-surface expressed FGFR4 was performed with Rh4-FR4 wt and Rh4-FR4ko cells by flow cytometry.
For orientation: In flow cytometry, cells or beads pass a laser one at a time.

The target in experiment [2] is T2, Recombinant FGFR4 (G&P Biosciences) (human, UniProt P22455 22-369).
T2 construct: Bought protein; the SPR method says only 'Recombinant; also called rFGFR4; extracellular FGFR4
T2 sequence: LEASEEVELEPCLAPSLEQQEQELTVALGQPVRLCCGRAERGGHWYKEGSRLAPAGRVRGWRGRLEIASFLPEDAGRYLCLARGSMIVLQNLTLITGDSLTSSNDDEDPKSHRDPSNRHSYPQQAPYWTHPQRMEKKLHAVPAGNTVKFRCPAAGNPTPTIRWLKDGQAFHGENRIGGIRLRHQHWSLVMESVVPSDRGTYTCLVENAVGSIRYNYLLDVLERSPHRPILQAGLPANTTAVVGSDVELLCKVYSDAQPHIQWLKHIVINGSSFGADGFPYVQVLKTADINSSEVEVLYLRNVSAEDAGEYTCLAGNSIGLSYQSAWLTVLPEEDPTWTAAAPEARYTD
Put plainly: SPR (BIAcore T200), single cycle kinetics, FGFR4 amine-immobilised, nanobody as analyte, heterogeneous ligand model, component 2 (kon2). The procedure: (§4) FIG. 3: Affinity determination of nanobodies to recombinant protein via surface plasmon resonance spectroscopy. Single cycle kinetics analysis was performed on immobilized FGFR4 through covalent amine binding on the dextran based sensor chip. The analytes A8, B1, B5, F8 and mCh were injected in 5 different concentrations followed by a dissociation phase. A final dissociation step was added after the last injection step to determine Koff rates for the KD calculations. The black curves represent the measured data and red curves show the fit analysis (heterogeneous ligand model) performed with the BIAevaluation software.
Single cycle kinetics analysis was performed with the BIAcore® T200 instrument (GE Healthcare) on CMD200M sensor chips (XanTec bioanalytics GmbH) activated with a mixture of 300 mM NHS (N-hydroxysuccinimide) and 50 mM EDC (N-ethyl-N′-(dimethylaminopropyl) carbodiimide). Recombinant FGFR1, FGFR2, FGFR3 and FGFR4 (G&P Biosciences) were immobilized on the activated biosensors (800 to 12′000 RU; 1 RU=1 pg/mm²) followed by a blocking step with 1M ethanolamine. One flow channel per chip was used as a reference to provide background corrections. The nanobodies were injected at 5 different concentrations followed by a dissociation phase. Koff-rates were determined from a final dissociation step after the last injection. The measurements with FGFR4 were performed for each nanobody on freshly immobilized protein due to strong binding and incomplete dissociation from the surface. Immobilization flow rate was 5 μl/min and binding studies were performed at 30 μl/min. Binding parameters were determined with the heterogeneous ligand model fit of the BIAevaluation software. The black curves represent the measured data and red curves show the performed fit analysis.
To determine the binding affinity of the nanobodies to FGFR4, we performed surface plasmon resonance (SPR) spectroscopy with recombinant FGFR4. As already mentioned above, FGFR1 and FGFR2 are expressed on Rh4-FR4ko cells and flow cytometry analysis indicated no binding of the nanobodies to the cells. To further confirm FGFR4-specificity, we included also affinity measurements with recombinant FGFR1, FGFR2 and FGFR3. Nanobodies A8, B1, B5, F8, and mCh were injected in five different concentrations on a FGFR coated chip.
A general note: SPR reads the build-up and loss of mass on a sensor chip optically.

Experiment [3] deals with T2, Recombinant FGFR4 (G&P Biosciences). The experiment can be described thus: SPR (BIAcore T200), single cycle kinetics, FGFR4 amine-immobilised, nanobody as analyte, heterogeneous ligand model, component 2 (koff2); heterogeneous ligand model, component 2 (koff2). The protocol: as §4
Single cycle kinetics analysis was performed with the BIAcore® T200 instrument (GE Healthcare) on CMD200M sensor chips (XanTec bioanalytics GmbH) activated with a mixture of 300 mM NHS (N-hydroxysuccinimide) and 50 mM EDC (N-ethyl-N′-(dimethylaminopropyl) carbodiimide). Recombinant FGFR1, FGFR2, FGFR3 and FGFR4 (G&P Biosciences) were immobilized on the activated biosensors (800 to 12′000 RU; 1 RU=1 pg/mm²) followed by a blocking step with 1M ethanolamine. […] Koff-rates were determined from a final dissociation step after the last injection. […] Binding parameters were determined with the heterogeneous ligand model fit of the BIAevaluation software. The black curves represent the measured data and red curves show the performed fit analysis. […]

Experiment [4] deals with T3, FGFR2 expressed on Rh4-FR4ko cells (UniProt P21802 22-821, limits assumed).
T3 construct: whole, on cells; also called FGFR2 on Rh4 cells
T3 sequence (P21802 22-821 limits assumed): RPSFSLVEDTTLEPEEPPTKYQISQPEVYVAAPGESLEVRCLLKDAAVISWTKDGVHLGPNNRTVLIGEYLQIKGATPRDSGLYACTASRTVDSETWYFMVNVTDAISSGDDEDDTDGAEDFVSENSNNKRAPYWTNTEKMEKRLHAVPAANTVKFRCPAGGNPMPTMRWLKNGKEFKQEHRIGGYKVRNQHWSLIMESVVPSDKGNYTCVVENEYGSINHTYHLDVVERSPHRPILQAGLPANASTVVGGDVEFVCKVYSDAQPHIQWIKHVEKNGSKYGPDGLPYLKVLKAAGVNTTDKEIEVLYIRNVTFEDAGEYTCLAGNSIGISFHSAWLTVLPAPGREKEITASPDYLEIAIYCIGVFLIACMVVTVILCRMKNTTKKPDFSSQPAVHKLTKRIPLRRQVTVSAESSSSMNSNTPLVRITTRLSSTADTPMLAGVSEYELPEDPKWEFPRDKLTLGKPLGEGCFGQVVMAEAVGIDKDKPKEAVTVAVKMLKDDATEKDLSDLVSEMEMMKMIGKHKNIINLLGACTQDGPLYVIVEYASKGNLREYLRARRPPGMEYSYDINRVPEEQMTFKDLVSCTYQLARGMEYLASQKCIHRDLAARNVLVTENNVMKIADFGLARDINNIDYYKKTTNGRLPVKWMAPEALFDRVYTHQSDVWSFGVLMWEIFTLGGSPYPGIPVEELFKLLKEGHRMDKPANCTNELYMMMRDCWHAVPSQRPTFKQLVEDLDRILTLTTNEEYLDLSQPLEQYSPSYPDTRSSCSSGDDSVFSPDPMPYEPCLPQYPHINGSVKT
The experiment can be described thus: flow cytometry on Rh4-FR4ko cells, which express FGFR1 and FGFR2. The procedure: as §1, §2, §3

By kon is commonly meant the rate constant with which the complex forms. In general, koff refers to the rate constant with which the complex falls apart.

B1: B5 nanobody (anti-FGFR4 sdAb, NaLi-H1 library) (VHH)
VHH: EVQLQASGGGFVQPGGSLRLSCAASGRTSWLTTMGWFRQAPGKEREFVSAISSFSSKQGYYADSVKGRFTISRDNSKNTVYLQMNSLRAEDTATYYCAYASYPRHQGNGRWKDFVEYWGQGTQVTVSS
notes: Recombinant nanobody of about 17 kDa; also called B5 sdAb; not shown: C-terminal Myc/6xHis-tag and an additional cysteine
With B1, in experiment [1], the binding result is recorded as “no binding (tested: 30 µg/ml)”. Moreover, in experiment [2], the on-rate (kon) worked out at 173000 M⁻¹ s⁻¹. The koff in experiment [3] stood at 3.75e-08 s⁻¹.

B2: A8 nanobody (anti-FGFR4 sdAb, NaLi-H1 library) (VHH)
VHH: EVQLQASGGGFVQPGGSLRLSCAASGRTYSRDTMGWFRQAPGKEREFVSAISSRHSHTTYYADSVKGRFTISRDNSKNTVYLQMNSLRAEDTATYYCAEWDVFDMHYALPPMWYWGQGTQVTVSS
notes: also called A8 sdAb; not shown: C-terminal Myc/6xHis-tag and an additional cysteine
With B2, in experiment [1], the binding result was “no binding (tested: 30 µg/ml)”. The kon in experiment [2] is 66700 M⁻¹ s⁻¹.

B3: B1 nanobody (anti-FGFR4 sdAb, NaLi-H1 library) (VHH)
VHH: EVQLQASGGGFVQPGGSLRLSCAASGYTSRSSAMGWFRQAPGKEREFVSAISDLTGYPYYYADSVKGRFTISRDNSKNTVYLQMNSLRAEDTATYYCAAYQDDKWTYGSQHGKYWGQGTQVTVSS
notes: also called B1 sdAb; not shown: C-terminal Myc/6xHis-tag and an additional cysteine
Take B3: the binding result in experiment [1] and in experiment [4] was “no binding (tested: 30 µg/ml)” in each case. The kon in experiment [2] was 216000 M⁻¹ s⁻¹.

B4: F8 nanobody (anti-FGFR4 sdAb, Gimli library) (VHH)
VHH: EVQLVESGGGLVQPGGSLRLSCAASGTGYALDDMGWVRQAPGKGLEWVSAISDDESMADYYADSVKGRFTISRDNSKNTVYLQMNSLRAEDTAVYYCASYKEYKYQSGHHYFAYRGQGTLVTVSS
notes: Recombinant nanobody of about 17 kDa; also called F8 sdAb; not shown: C-terminal Myc/6xHis-tag and an additional cysteine
Consider B4, for which the binding result in experiment [1] and in experiment [4] was “no binding (tested: 30 µg/ml)” each time. Further, in experiment [2], the kon was 1.35e+06 M⁻¹ s⁻¹.

These data come from patent US20260191907A1 (INSTITUT CURIE, published 2026).
